The values below come from US20220306713A1.

Test [1] has as its target mouse PD-L1 on the surface of mouse tumor cell lines A20 and CT26 (mouse) (UniProt Q9EP73). Briefly: flow cytometry, PE-labelled protein, 0.5 ug in 100 ul, A20 cells (high PD-L1), after Fc block; A20-Blank X-AMean 76.61.
For test [2] the target is unchanged. Briefly: flow cytometry, PE-labelled protein, 2.5 ug in 100 ul, A20 cells (high PD-L1), after Fc block; A20-Blank X-AMean 76.61.
Test [3] shares this target. Description: flow cytometry, PE-labelled protein, 2.5 ug in 100 ul, CT26 cells (low PD-L1), after Fc block; CT26-Blank X-AMean printed 254.50.
Test [4] addresses recombinant human PD-L1 antigen (human) (UniProt Q9NZQ7). Description: SPR (Biacore T200), antibody captured on anti-human IgG Fc CM5 chip, recombinant human PD-L1 as analyte, 1:1 Langmuir fit. For orientation: Surface plasmon resonance follows binding to a sensor surface in real time, without labels.
Test [5] concerns the target recombinant human PD-1 antigen (human) (UniProt Q15116). Briefly: SPR (Biacore T200), antibody captured on anti-human IgG Fc CM5 chip, recombinant human PD-1 as analyte, 1:1 Langmuir fit.
Sequence of UniProt Q15116 (Q15116 25-167 limits assumed): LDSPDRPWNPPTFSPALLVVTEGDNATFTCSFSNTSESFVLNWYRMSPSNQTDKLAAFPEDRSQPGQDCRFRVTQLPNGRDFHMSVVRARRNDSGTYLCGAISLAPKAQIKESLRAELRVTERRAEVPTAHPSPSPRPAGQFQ

Sequence of UniProt Q9EP73 (Q9EP73 19-290): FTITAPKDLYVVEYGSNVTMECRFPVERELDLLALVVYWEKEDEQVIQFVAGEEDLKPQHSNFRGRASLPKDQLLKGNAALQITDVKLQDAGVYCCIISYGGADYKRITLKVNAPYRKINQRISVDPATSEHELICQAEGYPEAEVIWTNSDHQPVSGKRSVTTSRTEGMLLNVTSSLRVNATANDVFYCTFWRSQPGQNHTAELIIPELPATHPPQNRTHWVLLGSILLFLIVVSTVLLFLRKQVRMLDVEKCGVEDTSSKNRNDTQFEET
Sequence of UniProt Q9NZQ7 (Q9NZQ7 19-238 limits assumed): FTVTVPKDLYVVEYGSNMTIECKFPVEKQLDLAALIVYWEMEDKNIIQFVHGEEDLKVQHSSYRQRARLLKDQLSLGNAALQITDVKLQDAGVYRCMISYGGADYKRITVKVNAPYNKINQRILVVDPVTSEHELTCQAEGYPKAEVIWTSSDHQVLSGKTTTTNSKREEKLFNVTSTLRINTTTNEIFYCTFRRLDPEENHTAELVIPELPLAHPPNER

Take “anti-PD-L1(10F.9G2) antibody-HC-mIL-10 fusion protein (from UniProt P18893 19-178)”: the X-AMean in test [1] came to 1830; in test [2], 5930; in test [3], 590.

“rat-anti-mouse PD-L1 monoclonal antibody 10F.9G2”: the X-AMean in test [1] was found to be 949; in test [2] it was 4990; in test [3], 885.

B1: anti-human PD-L1 antibody 5G11 (antibody, from another filing, V domains shown)
VH: QVQLKQSGPGLVQPSQSLSITCTVSGFSLTTYGVHWVRQSPGKGLEWLGVIWRGVTTDYNAAFMSRLTITKDNSKSQVFFKMNSLQANDTAIYYCARLGFYAMDYWGQGTSVTVSS
VL: SIVMTQTPKFLLVSAGDRVTITCKASQSVSNDVAWYQQKPGQSPKLLIYYAANRYTGVPDRFTGSGYGTDFTFTISIVQAEDLAVYFCQQDYTSPYTFGGGTKLEIK
The Kd is the equilibrium constant for the complex coming apart. By koff is commonly meant the first-order rate constant of dissociation. Broadly, the kon is the rate constant with which the complex forms. As for B1, in test [4], the Kd is 0.29 nM, the off-rate (koff) stood at 0.000779 s⁻¹ and the kon was determined as 2.65e+06 M⁻¹ s⁻¹.

B2: anti-human PD-1 antibody 7A4D (antibody, from another filing, V domains shown)
VH: QIQLVQSGSELKKPGASVKVSCKASGYTFTNFGMNWVRQAPGQGLKWMGWISGYTREPTYAADFKGRFVISLDTSVSTAYLQISSLKAEDTAVYYCARDVFDYWGQGTLVTVSS
VL: DIVLTQSPASLAVSPGQRATITCRASESVDNYGYSFMNWFQQKPGQPPKLLIYRASNLESGVPARFSGSGSRTDFTLTINPVEADDTANYYCQQSNADPTFGQGTKLEIKR
In the case of B2, in test [5], the Kd turned out to be 0.83 nM, the koff stood at 0.000806 s⁻¹ and the on-rate constant (kon) came out at 974000 M⁻¹ s⁻¹.
